Test results taken from US12049656B2, “Process for the modification of a glycoprotein using a glycosyltransferase that is or is derived from a β(1,4)-n-acetylgalactosaminyltransferase” (Synaffix B.V., priority 2015, dated 2024).
Changes are numbered by the printed parent chain. Numbers in names are those of the source.

B1: β4GalT(Y289L,M344H): double mutant β-1,4-galactosyltransferase described by Ramakrishnan et al. (protein, UniProt P08037 1-402, looked up, variant Y289L M344H)
chain: MKFREPLLGGSAAMPGASLQRACRLLVAVCALHLGVTLVYYLAGRDLRRLPQLVGVHPPLQGSSHGAAAIGQPSGELRLRGVAPPPPLQNSSKPRSRAPSNLDAYSHPGPGPGPGSNLTSAPVPSTTTRSLTACPEESPLLVGPMLIEFNIPVDLKLVEQQNPKVKLGGRYTPMDCISPHKVAIIIPFRNRQEHLKYWLYYLHPILQRQQLDYGIYVINQAGESMFNRAKLLNVGFKEALKDYDYNCFVFSDVDLIPMNDHNTYRCFSQPRHISVAMDKFGFSLPYVQLFGGVSALSKQQFLSINGFPNNYWGWGGEDDDIYNRLAFRGMSVSRPNAVIGKCRHIRHSRDKKNEPNPQRFDRIAHTKETMLSDGLNSLTYMVLEVQRYPLYTKITVDIGTPS
B2: bovine β(1,4)-Gal-T1: bovine β(1,4)-galactosyltransferase, commercially available from Sigma Aldrich (protein)
chain: B1 chain with V158I, P187L, I205M, L206V, H344M
modifications: Bos Taurus GalT Y289L mutant
notes: bovine β(1,4)-galactosyltransferase, commercially available from Sigma Aldrich
B3: DmGalNAcT (47-403): truncated Drosophila melanogaster β-(1,4)-GalNAcT enzyme, amino acids 47-403 of SEQ ID NO: 5 (protein)
chain: HKYAHIYGNASSDGAGGSEASRLPASPLALSKDRERDQELNGGPNSTIRTVIATANFTSIPQDLTRFLLGTKKFLPPRQKSTSALLANCTDPDPRDGGPITPNTTLESLDVIEAELGPLLRPGGAFEPENCNAQHHVAIVVPFRDRYAHLLLFLRNIHPFLMKQRIAYRIFIVEQTNGKPFNRAAMMNIGYLEALKLYQWDCFIFHDVDLLPLDDRNLYNCPRQPRHMSVAIDTLNFRLPYRSIFGGVSAMTREHFQAVNGFSNSFFGWGGEDDDMSNRLKHANLFISRYPVNIARYKMLKHQKEKANPKRYENLQNGMSKIEQDGINSIKYSIYSIKQFPTFTWYLAELKNSERKS
modifications: DmGalNAcT (47-403)
B4: AsGalNAcT (30-383): truncated Ascaris sum β-(1,4)-GalNAcT enzyme, amino acids 30-383 of SEQ ID NO: 3 (protein)
chain: DYSFWSPAFIISAPKTLTTLQPFSQSTSTNDLAVSALESVEFSMLDNSSILHASDNWTNDELVMRAQNENLQLCPMTPPALVGPIKVWMDAPSFAELERLYPFLEPGGHGMPTACRARHRVAIVVPYRDRESHLRTFLHNLHSLLTKQQLDYAIFVVEQTANETFNRAKLMNVGYAEAIRLYDWRCFIFHDVDLLPEDDRNLYSCPDEPRHMSVAVDKFNYKLPYGSIFGGISALTREQFEGINGFSNDYWGWGGEDDDLSTRVTLAGYKISRYPAEIARYKMIKHNSEKKNPVNRCRYKLMSATKSRWRNDGLSSLSYDLISLGRLPLYTHIKVDLLEKQSRRYLRTHGFPTC
modifications: AsGalNAcT (30-383)
B5: TnGalNAcT (33-421): truncated Trichoplusia ni β-(1,4)-GalNAcT enzyme, amino acids 33-421 of SEQ ID NO: 4 (protein)
chain: SPLRTYLYTPLYNATQPTLRNVERLAANWPKKIPSNYIEDSEEYSIKNISLSNHTTRASVVHPPSSITETASKLDKNMTIQDGAFAMISPTPLLITKLMDSIKSYVTTEDGVKKAEAVVTLPLCDSMPPDLGPITLNKTELELEWVEKKFPEVEWGGRYSPPNCTARHRVAIIVPYRDRQQHLAIFLNHMHPFLMKQQIEYGIFIVEQEGNKDFNRAKLMNVGFVESQKLVAEGWQCFVFHDIDLLPLDTRNLYSCPRQPRHMSASIDKLHFKLPYEDIFGGVSAMTLEQFTRVNGFSNKYWGWGGEDDDMSYRLKKINYHIARYKMSIARYAMLDHKKSTPNPKRYQLLSQTSKTFQKDGLSTLEYELVQVVQYHLYTHILVNIDERS
modifications: TnGalNAcT(33-421)

Assays:
β-(1,4)-GalNAcT = β-(1,4)-GalNAcT (Caenorhabditis elegans, UniProt Q9GUM2); conditions: as donor substrate compared with UDP-GalNAc; cited from earlier work
TnGalNAcT = experiment: Transfer of 6-modified GalNAc-UDP derivatives to trimmed brentuximab by TnGalNAcT (mass spectrometric analysis); format: biochemical, Trichoplusia ni; conditions: sugar nucleotide 5 mM; TnGalNAcT 1.5 mg/mL; trimmed brentuximab 15 mg/mL; 30 °C overnight
Description: Bentuximab was trimmed analogues to the trimming of trastuzumab as described in example 6.
(§1) Trimmed bentuximab (15 mg/mL) was incubated with 6-amino-6-deoxy-GalNAc-UDP 94 (5 mM) and TnGalNAcT (1.5 mg/mL) in 10 mM MnCl2 and 25 mM Tris-HCl pH 8.0 at 30° C. overnight. A sample of the reaction mixture (2 μL) was incubated for 1 hour at 37° C. with Fabricator™ (1.25 U/μL) in phosphate-buffered saline (PBS) pH 6.6 in a total volume of 10 μL.
as §1, with “6-(2-azidoacetamido)-6-deoxy-GalNAc 93” for “6-amino-6-deoxy-GalNAc-UDP 94”

[1] = test system: core GlcNAc(Fuc) substituted trastuzumab; experiment: Glycosyltransfer of 6-azido-GalNAc-UDP to trimmed trastuzumab under the action of GalNAcTs (mass spectral analysis); format: biochemical; conditions: 6-azido-GalNAc-UDP 1 mM; for Conversions (%) of GlcNAc(Fuc) substituted trastuzumab into 6-azido-GalNAc-GlcNAc(Fuc)-substituted trastuzumab: trimmed trastuzumab 10 mg/mL; for product formation, mass spectral analysis of Fabricator-digested samples: both enzyme concentrations (0.2 or 0.5 mg/mL)
Description: (§2) Prior to mass spectral analysis, IgGs were either treated with DTT, which allows analysis of both light and heavy chain, or treated with Fabricator™ (commercially available from Genovis, Lund, Sweden), which allows analysis of the Fc/2 fragment. For analysis of both light and heavy chain, a solution of 20 μg (modified) IgG was incubated for 5 minutes at 37° C. with 100 mM DTT in a total volume of 4 μL. If present, azide-functionalities are reduced to amines under these conditions. For analysis of the Fc/2 fragment, a solution of 20 μg (modified) IgG was incubated for 1 hour at 37° C. with Fabricator™ (1.25 U/μL) in phosphate-buffered saline (PBS) pH 6.6 in a total volume of 10 μL. After reduction or Fabricator-digestion the samples were washed trice with milliQ using an Amicon Ultra-0.5, Ultracel-10 Membrane (Millipore) resulting in a final sample volume of approximately 40 μL. Next, the samples were analyzed by electrospray ionization time-of-flight (ESI-TOF) on a JEOL AccuTOF. Deconvoluted spectra were obtained using Magtran software.
Glycan trimming of trastuzumab was performed with endo S from Streptococcus pyogenes (commercially available from Genovis, Lund, Sweden). Thus, trastuzumab (10 mg/mL) was incubated with endo S (40 U/mL) in 25 mM Tris pH 8.0 for approximately 16 hours at 37° C. The deglycosylated IgG was concentrated and washed with 10 mM MnCl2 and 25 mM Tris-HCl pH 8.0 using an Amicon Ultra-0.5, Ultracel-10 Membrane (Millipore). […] The two peaks of heavy chain belonged to one major product (49496 Da, 90% of total heavy chain), resulting from core GlcNAc(Fuc) substituted trastuzumab, and a minor product (49351 Da, ±10% of total heavy chain), resulting from trimmed trastuzumab.
Incorporation of 6-azidoGalNAc was tested for CeGalNAcT(30-383) (identified by SEQ ID NO: 6), AsGalNAcT(30-383) (identified by SEQ ID NO: 7), TnGalNAcT(33-421) (identified by SEQ ID NO: 8) and DmGalNAcT(47-403) (identified by SEQ ID NO: 9), which were expressed and purified as described in example 5. Trimmed trastuzumab (10 mg/mL), obtained by endo S treatment of trastuzumab as described above, was incubated with 6-azido-GalNAc-UDP (1 mM, commercially available from GlycoHub) in 10 mM MnCl2 and 25 mM Tris-HCl pH 7.5 and either 0.2 or 0.5 mg/mL of one of the above mentioned GalNAcTs.

[2] = cited from earlier work
[3] = test system: core GlcNAc(Fuc) substituted trastuzumab; experiment: Glycosyltransfer of 6-azido-Gal-UDP to trimmed trastuzumab under the action of bovine β(1,4)-Gal-T1; format: biochemical; conditions: 0.1 or 0.5 mg/mL enzyme; 6-azido-Gal-UDP 1 mM; 30 °C overnight
Description: as §2
Glycan trimming of trastuzumab was performed with endo S from Streptococcus pyogenes (commercially available from Genovis, Lund, Sweden). Thus, trastuzumab (10 mg/mL) was incubated with endo S (40 U/mL) in 25 mM Tris pH 8.0 for approximately 16 hours at 37° C. […]

Chain of β-(1,4)-GalNAcT (Q9GUM2 whole entry): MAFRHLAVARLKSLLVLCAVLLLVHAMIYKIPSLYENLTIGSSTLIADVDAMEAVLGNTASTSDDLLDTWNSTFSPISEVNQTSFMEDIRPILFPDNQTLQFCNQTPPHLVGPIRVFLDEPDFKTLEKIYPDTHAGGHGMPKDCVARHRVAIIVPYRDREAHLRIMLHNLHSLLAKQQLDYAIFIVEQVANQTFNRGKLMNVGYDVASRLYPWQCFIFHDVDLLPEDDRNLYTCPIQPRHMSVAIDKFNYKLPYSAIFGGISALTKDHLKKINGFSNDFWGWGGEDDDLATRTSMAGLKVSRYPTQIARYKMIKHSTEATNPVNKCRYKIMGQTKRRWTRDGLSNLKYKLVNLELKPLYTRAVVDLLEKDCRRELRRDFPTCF

Row | Molecule | Conversions (%) of GlcNAc(Fuc) substituted trastuzumab into 6-azido-GalNAc-GlcNAc(Fuc)-substituted trastuzumab ([1]; 0.2 mg/mL enzyme) [%] | Conversions (%) of GlcNAc(Fuc) substituted trastuzumab into 6-azido-GalNAc-GlcNAc(Fuc)-substituted trastuzumab ([1]; 0.5 mg/mL enzyme) [%] | product formation, mass spectral analysis of Fabricator-digested samples [1] | other results
1 | CC(=O)N[C@H]1[C@@H](OP(=O)(O)OP(=O)(O)OC[C@H]2O[C@@H](n3ccc(=O)[nH]c3=O)[C@H](O)[C@@H]2O)O[C@H](CO)[C@@H](O)[C@@H]1O [UDP-GlcNAc] | – | – | – | transferase activity remains (β-(1,4)-GalNAcT): 0.7%
2 | CC(=O)NC1C(OP(=O)(O)OP(=O)(O)OCC2OC(n3ccc(=O)[nH]c3=O)C(O)C2O)OC(CNC(=O)CN=[N+]=[N-])C(O)C1O (stereo not drawn) [compound 93, 6-(2-azidoacetamido)-6-deoxy-GalNAc-UDP] | – | – | – | conversion to the modified brentuximab product (TnGalNAcT): 70%
3 | CC(=O)NC1C(OP(=O)(O)OP(=O)(O)OCC2OC(n3ccc(=O)[nH]c3=O)C(O)C2O)OC(CN)C(O)C1O (stereo not drawn) [compound 94, 6-amino-6-deoxy-GalNAc-UDP] | – | – | – | conversion to the modified brentuximab product (TnGalNAcT): full conversion
4 | CeGalNAcT (30-383): truncated Caenorhabditis elegans β-(1,4)-GalNAcT enzyme, amino acids 30-383 of SEQ ID NO: 2 | 0 | 0 | no product formation | –
5 | B1 | – | – | – | activity in the presence of Mg2+ ([2]; Mg2+): 25-30%; loss of Mn2+-dependent activity ([2]; Mn2+): 98%
6 | B2 | – | – | – | product formation, mass spectral analysis of reduced samples [3]: no product formation
7 | B3 | 0 | 0 | no product formation | –
8 | B4 | 10 | 30 | partial conversion | –
9 | B5 | 40 | 60 | partial conversion | –
